In the assay the target is BAFF-R (human, UniProt Q96RJ3). Nature of the assay: other, in vitro experiments.
Sequence of BAFF-R (Q96RJ3 7-71): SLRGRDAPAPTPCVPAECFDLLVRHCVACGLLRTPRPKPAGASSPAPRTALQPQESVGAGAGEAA

B1: ianalumab (VAY736) (antibody, V domains shown)
VH: QVQLQQSGPGLVKPSQTLSLTCAISGDSVSSNSAAWGWIRQSPGRGLEWLGRIYYRSKWYNSYAVSVKSRITINPDTSKNQFSLQLNSVTPEDTAVYYCARYDWVPKIGVFDSWGQGTLVTVSS
VL: DIVLTQSPATLSLSPGERATLSCRASQFISSSYLSWYQQKPGQAPRLLIYGSSSRATGVPARFSGSGSGTDFTLTISSLEPEDFAVYYCQQLYSSPMTFGQGTKVEIKR
For orientation: Kd means the concentration at which binding is half-saturated. Read a low Kd as a tighter complex. On to B1, for which the Kd was 0.046 nM.

(Values after patent publication US20260374887 (published 2026).)
